Measurements published in patent US20250340626A1 (INTERVET, published 2025).

T1: canine NGF receptor TrkA ECD-canine Fc fusion protein (canine)
T1 construct: also called cTrkA-ECD-IgG-B Fc fusion protein; canine TrkA-IgGBFc fusion protein
T1 chain: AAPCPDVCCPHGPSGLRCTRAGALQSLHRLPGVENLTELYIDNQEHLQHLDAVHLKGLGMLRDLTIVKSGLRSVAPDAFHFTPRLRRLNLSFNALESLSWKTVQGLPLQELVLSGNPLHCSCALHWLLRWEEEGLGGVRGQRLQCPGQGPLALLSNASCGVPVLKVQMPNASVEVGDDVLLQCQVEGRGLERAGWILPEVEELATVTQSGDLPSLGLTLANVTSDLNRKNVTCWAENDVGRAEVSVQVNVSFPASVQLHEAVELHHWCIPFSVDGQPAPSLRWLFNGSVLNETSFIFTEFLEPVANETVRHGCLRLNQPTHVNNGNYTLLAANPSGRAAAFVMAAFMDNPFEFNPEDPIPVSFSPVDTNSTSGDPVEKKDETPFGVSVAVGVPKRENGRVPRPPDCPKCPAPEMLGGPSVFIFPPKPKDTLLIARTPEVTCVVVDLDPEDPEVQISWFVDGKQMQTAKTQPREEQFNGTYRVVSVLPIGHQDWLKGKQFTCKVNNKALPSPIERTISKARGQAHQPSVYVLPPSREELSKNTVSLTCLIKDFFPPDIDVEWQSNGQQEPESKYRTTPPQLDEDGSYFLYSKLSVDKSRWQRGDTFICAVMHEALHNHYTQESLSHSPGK

B1: canine NGF (ligand)
chain: SSSHPVFHRGEFSVCDSVSVWVGDKTTATDIKGKEVMVLGEVNINNSVFKQYFFETKCRDPTPVDSGCRGIDSKHWNSYCTTTHTFVKALTMDGKQAAWRFIRIDTACVCVLSRKAGRRA
notes: also called canine Nerve Growth Factor; cNGF
B2: human-canine chimeric Fasinumab (antibody, V domains shown)
VH: QVQLVQSGAEVKKPGASVKVSCKVSGFTLTELSIHWVRQAPGKGLEWMGGFDPEDGETIYAQKFQGRVTMTEDTSTDTAYMELTSLRSEDTAVYYCSTIGVVTNFDNWGQGTLVTVSS
VL: DIQMTQSPSSLSASAGDRVTITCRASQAIRNDLGWYQQKPGKAPKRLIYAAFNLQSGVPSRFSGSGSGTEFTLTISSLQPEDLASYYCQQYNRYPWTFGQGTKVEIKR
notes: Human VH/VL of fasinumab fused to canine IgG-B constant regions and canine kappa constant region; also called Fas Chimeric; Fas Chim
B3: human-canine chimeric Fulranumab (antibody, V domains shown)
VH: EVQLVESGGGLVQPGGSLRLSCAASGFTLRSYSMNWVRQAPGKGLEWVSYISRSSHTIFYADSVKGRFTISRDNAKNSLYLQMDSLRDEDTAMYYCARVYSSGWHVSDYFDYWGQGILVTVSS
VL: AIQLTQSPSSLSASVGDRVTITCRASQGISSALAWYQQKPGKAPKLLIYDASSLESGVPSRFSGSGSGTDFTLTISSLQPEDFATYYCQQFNSYPLTFGGGTKVEIKR
notes: Human VH/VL of fulranumab fused to canine IgG-B constant regions and canine kappa constant region; expressed in HEK293, Protein A purified; also called Ful Chimeric; Ful Chim

Legend:
[1] = target: T1, canine NGF receptor TrkA ECD-canine Fc …; test: ELISA, canine NGF on canine TrkA receptor
[2] = target: human TrkA on TF-1 cells (human, UniProt P04629 33-796); test: cell-based or functional assay
human TrkA on TF-1 cells, sequence (P04629 33-796): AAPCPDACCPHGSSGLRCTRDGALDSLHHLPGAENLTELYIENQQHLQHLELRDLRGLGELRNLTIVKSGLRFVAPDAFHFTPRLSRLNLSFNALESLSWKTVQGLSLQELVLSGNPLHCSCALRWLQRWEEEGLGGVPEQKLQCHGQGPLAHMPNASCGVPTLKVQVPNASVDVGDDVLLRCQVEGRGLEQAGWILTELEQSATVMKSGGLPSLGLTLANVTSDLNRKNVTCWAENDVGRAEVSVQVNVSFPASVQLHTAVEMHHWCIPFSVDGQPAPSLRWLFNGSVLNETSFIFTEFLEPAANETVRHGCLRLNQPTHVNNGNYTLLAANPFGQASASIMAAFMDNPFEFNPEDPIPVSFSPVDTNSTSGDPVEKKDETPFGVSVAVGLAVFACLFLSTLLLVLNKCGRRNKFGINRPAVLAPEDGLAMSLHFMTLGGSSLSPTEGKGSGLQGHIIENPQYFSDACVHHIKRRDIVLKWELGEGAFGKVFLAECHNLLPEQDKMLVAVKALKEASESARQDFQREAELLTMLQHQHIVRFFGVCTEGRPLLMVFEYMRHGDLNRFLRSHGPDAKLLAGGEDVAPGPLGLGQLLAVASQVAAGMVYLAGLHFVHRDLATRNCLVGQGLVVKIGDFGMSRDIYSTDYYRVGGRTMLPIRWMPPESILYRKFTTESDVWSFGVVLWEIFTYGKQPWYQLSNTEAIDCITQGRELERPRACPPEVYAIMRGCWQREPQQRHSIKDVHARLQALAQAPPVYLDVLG

[3] = target: B1; test: ELISA, canine NGF coated, anti-dog IgG Fc-HRP detection
Description: The binding of chimeric and caninized antibodies to canine NGF was determined by ELISA as follows: [0132] 1. Coat 100 ng/well canine NGF in an immunoplate and incubate the plate at 4° C. overnight. [0133] 2. Wash the plate 3 times by PBS with 0.05% Tween 20 (PBST). [0134] 3. Block the plate by 0.5% BSA in PBS for 45-60 min at room temperature. [0135] 4. Wash the plate 3 times by PBST. [0136] 5. Make 3-fold dilution the antibodies in each column or row of dilution plate. [0137] 6. Transfer the diluted antibodies into each column or row of the immunoplate, and incubate the plate for 45-60 min at room temperature. [0138] 7. Wash the plate 3 times by PBST. [0139] 8. Add 1:2000 diluted horseradish peroxidase labeled anti-dog IgG Fc into each well of the plate and incubate the plate for 45-60 min at room temperature. [0140] 9. Wash the plate 3 times by PBST. [0141] 10. Add TMB Substrate into each well of the plate and incubate the plate for 10 to 15 min at room temperature for color development. [0142] 11. Add 100 μL of 1.5 M phosphoric acid into each well to stop the reaction. [0143] 12. Read the plate at 450 nm with 540 nm reference wavelength.

## B1
[1]
  EC50: 54 nM
[2]
  TF-1 cell proliferation (CellTiter-Glo luminescence) EC50: 28 nM

## B2
[3]
  EC50: 122 nM

## B3
[3]
  EC50: 0.022 nM
